Results from patent US20010052137A1, “Axin domain-like polypeptide inhibitors of glycogen synthase kinase 3 beta activity and activators of wnt signaling” (Trustees of the University of Pennsylvania, priority 2000, published 2001).

Assays:
Xenopus embryos = experiment: Dorsal axis duplication / dorsalization in Xenopus embryos after mRNA injection; type: in vivo; settings: 4 cell embryo
GSK-3 beta [1] = experiment: In ovo tau phosphorylation assay: GSK-3 beta and Xaxin constructs co-expressed in Xenopus oocytes; type: cell-based; settings: construct co-expressed with GSK-3 beta in Xenopus oocytes; tau microinjected; PHF-1 immunoblot
Procedure: Stage VI Xenopus oocytes were isolated by collagenase treatment (Smith et al., 1994, Meth. Cell Biol. 36:45-58) and were injected with mRNA prepared by in vitro transcription (mMessage Machine™; Ambion, Austin, Tex.). 10 nanoliters of mRNA (containing 1-2 nanograms per nanoliter) was injected for each construct (unless otherwise specified), and the injected oocytes were incubated for 16 hours at 18° C. To analyze the effects of Xaxin constructs on dorsal-ventral pattern formation, Xenopus embryos were injected with 10 nanoliters of mRNA (0.1-0.2 nanogram per nanoliter) into one dorsal or ventral cell of a 4 cell embryo and dorsal axes were assessed at the tadpole stage. For Xaxin co-immunoprecipitation, fertilized eggs were injected with 10 nanoliters of Xaxin tagged with Myc, with hemagglutinin, or with both Myc and hemagglutinin (1 nanogram per nanoliter) and harvested at the blastula stage (stage 8).
In ovo phosphorylation of tau by GSK-3 beta was performed by microinjection of tau protein into oocytes expressing GSK-3 beta and Xaxin constructs. After 90 minutes, oocytes were homogenized and tau phosphorylation was analyzed in western blots using phospho-specific antibodies as described (Hedgepeth et al., 1997, Develop. Biol. 185:82-91). In vitro assays for GSK-3 beta activity were performed as described (Klein et al., 1996, Proc. Natl. Acad. Sci. USA 93:8455-8459). Recombinant GID-2/his protein (described below) was purified by affinity chromatography and added to in vitro assays at selected concentrations.
In the experiments presented in this example, a tau phosphorylation assay (described in Hedgepeth et al., 1997, Develop. Biol. 185:82-91) was used to examine the activity of GSK-3 beta in Xenopus oocytes in the presence of full length axin and axin deletion mutants. […] Furthermore, GSK-3 beta-dependent tau phosphorylation occurs in oocytes at the same sites (tau serine residues 396 and 404) that are phosphorylated by GSK-3 beta in vitro and occurs with similarly rapid kinetics.
GSK-3 beta was expressed in oocytes together with Myc-tagged full length Xaxin or with the amino-terminal (amino acid residues 63-288), GID-1 (amino acid residues 277-545), or carboxyl-terminal (amino acid residues 429-713) fragments of Xaxin, as depicted in FIG. 1A. Purified tau protein was then microinjected into the oocytes, and phosphorylation of tau was measured by immunoblotting using antibody PHF-1 or with antibodies that detect all (i.e. phosphorylated and non-phosphorylated) forms of tau.
In order to identify the domain of axin necessary for GSK-3 beta binding, multiple Myc-tagged GID deletion constructs (shown diagrammatically in FIG. 3A) were individually expressed in Xenopus oocytes in which GSK-3 beta was also expressed. Tau protein was microinjected into the oocytes, and immunoblotting was performed using phosphorylation-state-specific tau antibodies. A parallel group of oocytes expressing GSK-3 beta and the Myc-tagged GID deletion constructs were lysed, and GID proteins were immunoprecipitated using a Myc-specific antibody. The presence or absence of GSK-3 beta in GID immunoprecipitates was detected using GSK-3 beta-specific antibodies. GID deletion constructs which included amino acid residues 380-404 of Xaxin (i.e. constructs GID-1, GID-2, GID-4, GID-5, and GID-6) bound GSK-3 beta and inhibited GSK-3 beta mediated tau phosphorylation, as indicated in FIG. 3A. […] However, changing leucine residue 392 in FIG. 3B to proline abolishes its activity.

FL Xaxin = biological target: T1, FL Xaxin (Xenopus laevis, UniProt Q9YGY0); experiment: Yeast two hybrid assay, interaction with FL Xaxin; type: binding; settings: beta-galactosidase filter assay in S. cerevisiae
T1 construct: expressed in transfected cells; host or cells: Saccharomyces cerevisiae
Description: (§1) FL Xaxin was cloned in frame with the GAL4 DNA binding domain (BD) in plasmid pAS2-1 (Clontech) to yield BD plasmid. Expression of BD plasmid yielded a Xaxin-GAL4 fusion protein. FL Xaxin, deltaDIX Xaxin, and a fragment (designated “AID”) encoding amino acid residues 489-777 of Xaxin were cloned in frame with the GAL4 transcriptional activation domain (AD) in the vector pACT2 to yield AD plasmids. Yeast were transformed with BD and AD plasmids using previously described protocols (Clontech, Palo Alto, Calif.). Transformed colonies were selected and assayed for beta-galactosidase activity in order to detect interacting proteins. In addition, three Xenopus axin partial length cDNAs (designated Y2H 2, Y2H 6, Y2H 7; all in plasmid pACT2) isolated from a previous yeast two hybrid screen (Hedgepeth et al., 1999, Mech. Develop. 80:147-151) were analyzed. Purification of GID
(§2) Using the yeast two hybrid assay, the ability of axin to bind with itself, with other members of the wnt pathway, or with the G(alpha)q subunit of heterotrimeric G-proteins, was investigated. […]
(§3) Saccharomyces cerevisiae cells were transformed with the bait vector and with one of the target vectors. Interaction was assessed using a filter assay to detect beta-galactosidase activity, as described (Fields et al., 1989, Nature 340:245-247; Harper et al., 1993, Cell 75:805-816). […]

[2] = system: carboxyl-terminal fragment of Xenopus frizzled 3; experiment: Yeast two hybrid assay, interaction with frizzled 3 fragment; type: binding; settings: beta-galactosidase filter assay in S. cerevisiae
Description: as §1, §2, §3

[3] = system: LEF-1 dependent transcription (wnt signaling); experiment: LEF-luciferase reporter of wnt signaling in 293T cells; type: cell-based; settings: 293T cells
Procedure: LEF-1 (also designated tcf) is a DNA-binding protein that also binds with beta-catenin. The beta-catenin/LEF-1 complex is known to activate transcription of wnt target genes. A genetic construct was made which comprised this LEF-1-binding promoter operably linked with a luciferase gene, for use as a reporter of wnt signaling.
Single plasmids encoding individual GID fragments were transfected into 293T cells, together with the LEF-luciferase reporter, and luciferase activity was measured after 24 hours. GID fragments induced up to 100- to 250-fold activation of LEF-luciferase (normalized to activity from the mutated LEF-reporter control, which was activated less than 2-fold).

[4] = system: GSK-3 beta protein lacking amino-terminal or carboxyl-terminal residues; experiment: Binding of full length axin to truncated GSK-3 beta; settings: GSK-3 beta lacking as many as 62 amino-terminal or 132 carboxyl-terminal residues
GSK-3 beta [5] = experiment: Yeast two hybrid assay, interaction with GSK-3 beta; type: binding; settings: beta-galactosidase filter assay in S. cerevisiae
Description: as §1, §2, §3

disheveled = experiment: Yeast two hybrid assay, interaction with disheveled; type: binding; settings: beta-galactosidase filter assay in S. cerevisiae
Description: as §1, §2, §3

B1: full length Xaxin: full length Xenopus axin, amino acid residues 1-842 (SEQ ID NO: 8) (protein, listed as Xenopus laevis)
chain: MSVKGKGFPLDLGGSFTEDAPRPPVPGEEGELITTDQRPFSHTYYSLKNDGIKNETSTATPRRPDLDLGYEPEGSASPTPPYLKWAESLHSLLDDQDGIHLFRTFLQQENCADLLDFWFACSGFRKLEPNDSKVEKRLKLAKAIYKKYVLDSNGIVSRQIKPATKSFIKDCVLRQQIDPAMFDQAQMEIQSMMEDNTYPVFLKSDIYLEYTTIGGESPKNYSDQSSGSGTGKGPSGYLPTLNEDEEWRCDQGGEHERERECIPSSLFSQKLALDSSSHCAGSNRRLSDGREFRPGTWREPVNPYYVNTGYAGAPVTSANDSEQQSMSSDADTMSLTDSSVDGIPPYRLRKHYRREMQESANANGRGPLPHIPRTYHMPKDIHVDPEKFAAELISRLEGVLRDREAEQKLEERLKRVRAEEEGDDGDVSSGPSVISHKLPSGPPMHHFNSRYSETGCVGMQIRDAHEENPESILDEHVQRVMKTPGCQSPGTGRHSPKSRSPDGHLSKTLPGSLGTMQTGHGKHSSKSTAKVDSGNLHHHKHVYHHVHHHGGVKPKEQIDGESTQRVQTNFPWNVESHNYATKSRNYAESMGMAPNPMDSLAYSGKVSMLSKRNAKKADLGKSESASHEMPVVPEDSERHQKILQWIMEGEKEIIRHKKSNHSSSSAKKQPPTELARPLSIERPGAVHPWVSAQLRNVVQPSHPFIQDPTMPPNPAPNPLTQLVSKPGARLEEEEKKAAKMPQKQRLKPQKKNVSAPSQPCDNIVVAYYFCGEPIPYRTMVKGRVVTLGQFKELLTKKGNYRYYFKKVSDEFDCGVVFEEVREDDMILPIYEEKIIGQVEKID
Xenopus embryos; mRNA injected or expressed dorsally
  effect on axial development: caused ventralization
Xenopus embryos; mRNA injected or expressed ventrally, scored at tadpole stage
  secondary / ectopic axis formation: induced formation of ectopic cement glands
GSK-3 beta [1]
  GSK-3 beta-mediated tau phosphorylation (GSK-3 beta activity): no discernible effect
FL Xaxin
  interaction with FL Xaxin (self-interaction): interacted strongly
[2]
  interaction with carboxyl-terminal fragment of Xenopus frizzled 3: did not interact
[3]
  activation of wnt signaling (LEF-1-binding promoter luciferase reporter): not
[4]
  binding with truncated GSK-3 beta: able to bind
GSK-3 beta [5]
  interaction with GSK-3 beta: interacted strongly
disheveled
  interaction with disheveled: did not interact
